The results in this text go back to article PMC8908268 (The Journal of Biological Chemistry, 2022).

Where “and” joins values, the source holds several entries; their conditions need not be identical. Equal values may be shown once.

In assay [1] the target is His-tagged, doubly phosphorylated LAT (48–233aa; pY132 and pY171) (UniProt O43561). As to the kind of experiment: co-sedimentation.
The target in assay [2] is T1, Halo-tagged full-length Gads (Grb2-related adapter protein downstream of Shc), 1–322aa (UniProt O89100 1-322).
T1 sequence: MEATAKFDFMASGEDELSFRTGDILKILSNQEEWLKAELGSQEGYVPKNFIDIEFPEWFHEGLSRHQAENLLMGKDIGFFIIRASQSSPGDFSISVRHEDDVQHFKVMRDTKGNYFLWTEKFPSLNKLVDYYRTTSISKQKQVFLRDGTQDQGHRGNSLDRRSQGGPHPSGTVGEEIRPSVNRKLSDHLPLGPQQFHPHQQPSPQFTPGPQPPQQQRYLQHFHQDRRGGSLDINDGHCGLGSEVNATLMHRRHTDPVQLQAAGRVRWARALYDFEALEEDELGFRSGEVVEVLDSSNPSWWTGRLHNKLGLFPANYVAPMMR
As to the kind of experiment: co-sedimentation.

B1: Halo-tagged full-length Gads (Grb2-related adapter protein downstream of Shc), 1–322aa (natural protein)
chain: T1 sequence
As to B1, in assay [1], the % of protein binding to LUV is 26.3% and 31.4% and 42.8%.

B2: SLP-76 tyrosine- and proline-rich domains (103–258aa with Y113F and Y173F mutations) (domain or fragment)
chain: GGWSSFEEDDFESPNDDQDGEDDGDYESPNEEEEAPVEDDADYEPPPSNDEEALQNSILPAKPFPNSNSMFIDRPPSGKTPQQPPVPPQRPMAALPPPPAGRNHSPLPPPQTNHEEPSRSRNHKTAKLPAPSIDRSTKPPLDRSLAPFDREPFTLG
Take B2: the binding result in assay [2] is on record as “binds”.
